Patent publication US20190134153A1, “IMMUNOMODULATORY EFFECT OF INHALED KINASE INHIBITOR PEPTIDES IN LUNG” (MOERAE MATRIX, INC., priority 2017, published 2019)

Assays:
Assay in all cases: Kinase Profiling Assay
Type in all cases: biochemical
Details in all cases: 100 μM
[1] = target: T1, TBK1(h) (Homo sapiens, UniProt Q9UHD2)
T1 sequence (Q9UHD2 1-729): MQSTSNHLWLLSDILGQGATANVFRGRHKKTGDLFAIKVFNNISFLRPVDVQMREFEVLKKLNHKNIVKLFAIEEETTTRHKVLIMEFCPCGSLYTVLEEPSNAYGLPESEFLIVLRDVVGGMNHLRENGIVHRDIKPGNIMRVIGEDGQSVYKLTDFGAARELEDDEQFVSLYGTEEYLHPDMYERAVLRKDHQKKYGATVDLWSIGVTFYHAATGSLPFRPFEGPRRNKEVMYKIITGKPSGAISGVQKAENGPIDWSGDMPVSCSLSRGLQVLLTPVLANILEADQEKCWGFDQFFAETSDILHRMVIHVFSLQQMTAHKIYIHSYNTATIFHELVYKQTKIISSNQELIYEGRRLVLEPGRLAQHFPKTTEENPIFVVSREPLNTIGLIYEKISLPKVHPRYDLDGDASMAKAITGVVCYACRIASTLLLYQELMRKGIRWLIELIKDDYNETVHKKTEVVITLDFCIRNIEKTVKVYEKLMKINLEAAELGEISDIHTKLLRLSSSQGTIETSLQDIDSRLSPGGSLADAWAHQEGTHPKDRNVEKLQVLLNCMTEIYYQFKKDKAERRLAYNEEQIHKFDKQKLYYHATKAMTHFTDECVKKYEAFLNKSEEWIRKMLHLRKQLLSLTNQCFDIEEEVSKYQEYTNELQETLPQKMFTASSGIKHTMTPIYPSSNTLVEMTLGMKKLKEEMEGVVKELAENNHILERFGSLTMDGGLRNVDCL

[2] = target: BTK(R28H)(h) (Homo sapiens, UniProt Q06187, R28H)
Chain of BTK(R28H)(h) (Q06187 whole entry R28H): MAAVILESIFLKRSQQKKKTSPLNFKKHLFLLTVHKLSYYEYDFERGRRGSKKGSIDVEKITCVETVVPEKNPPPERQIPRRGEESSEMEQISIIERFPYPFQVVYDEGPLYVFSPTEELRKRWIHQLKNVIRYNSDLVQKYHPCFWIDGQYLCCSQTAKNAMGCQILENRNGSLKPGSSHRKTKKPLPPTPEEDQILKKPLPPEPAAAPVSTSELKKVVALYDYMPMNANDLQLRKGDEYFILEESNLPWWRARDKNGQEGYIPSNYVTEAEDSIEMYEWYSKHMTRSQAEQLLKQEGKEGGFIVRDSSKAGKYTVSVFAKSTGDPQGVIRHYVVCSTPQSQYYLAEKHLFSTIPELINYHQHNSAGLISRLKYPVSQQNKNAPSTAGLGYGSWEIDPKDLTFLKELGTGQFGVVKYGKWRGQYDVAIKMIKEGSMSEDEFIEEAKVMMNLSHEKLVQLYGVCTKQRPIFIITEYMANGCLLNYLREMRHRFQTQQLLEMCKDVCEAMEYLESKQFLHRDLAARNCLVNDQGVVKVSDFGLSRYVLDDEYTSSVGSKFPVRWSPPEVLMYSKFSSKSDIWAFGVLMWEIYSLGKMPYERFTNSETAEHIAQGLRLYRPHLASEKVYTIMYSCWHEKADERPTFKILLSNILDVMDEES

[3] = target: CaMKI(h) (Homo sapiens, UniProt Q14012)
Chain of CaMKI(h) (Q14012 whole entry): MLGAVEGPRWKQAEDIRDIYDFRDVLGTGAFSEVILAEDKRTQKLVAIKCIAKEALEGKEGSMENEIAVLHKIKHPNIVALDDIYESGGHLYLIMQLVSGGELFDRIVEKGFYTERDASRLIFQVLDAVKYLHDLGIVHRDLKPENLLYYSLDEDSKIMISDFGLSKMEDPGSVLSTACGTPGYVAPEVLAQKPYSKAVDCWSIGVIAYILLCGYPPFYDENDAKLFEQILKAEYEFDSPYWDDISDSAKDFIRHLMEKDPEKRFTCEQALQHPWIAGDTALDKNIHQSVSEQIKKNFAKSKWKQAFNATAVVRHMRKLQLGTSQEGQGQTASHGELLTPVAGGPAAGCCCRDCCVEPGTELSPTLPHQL

[4] = target: FGFR2(h) (Homo sapiens, UniProt P21802)
[5] = target: T2, PRAK(h) (Homo sapiens, UniProt Q8IW41)
T2 sequence (Q8IW41 1-473): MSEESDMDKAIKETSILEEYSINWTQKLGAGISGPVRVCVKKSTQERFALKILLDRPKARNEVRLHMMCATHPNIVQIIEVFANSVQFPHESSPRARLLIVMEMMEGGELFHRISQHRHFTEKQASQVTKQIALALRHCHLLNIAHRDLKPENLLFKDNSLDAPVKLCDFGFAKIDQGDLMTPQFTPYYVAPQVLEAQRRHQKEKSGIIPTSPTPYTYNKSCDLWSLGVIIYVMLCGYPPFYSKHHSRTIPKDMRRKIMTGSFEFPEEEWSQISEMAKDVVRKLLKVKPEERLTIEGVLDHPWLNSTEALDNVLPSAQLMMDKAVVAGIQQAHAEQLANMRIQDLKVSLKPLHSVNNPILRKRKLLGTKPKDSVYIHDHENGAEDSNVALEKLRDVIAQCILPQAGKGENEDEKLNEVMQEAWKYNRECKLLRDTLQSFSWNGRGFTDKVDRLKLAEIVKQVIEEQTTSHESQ

[6] = target: T3, MST1(h) (Homo sapiens, UniProt Q13043)
T3 sequence (Q13043 1-487): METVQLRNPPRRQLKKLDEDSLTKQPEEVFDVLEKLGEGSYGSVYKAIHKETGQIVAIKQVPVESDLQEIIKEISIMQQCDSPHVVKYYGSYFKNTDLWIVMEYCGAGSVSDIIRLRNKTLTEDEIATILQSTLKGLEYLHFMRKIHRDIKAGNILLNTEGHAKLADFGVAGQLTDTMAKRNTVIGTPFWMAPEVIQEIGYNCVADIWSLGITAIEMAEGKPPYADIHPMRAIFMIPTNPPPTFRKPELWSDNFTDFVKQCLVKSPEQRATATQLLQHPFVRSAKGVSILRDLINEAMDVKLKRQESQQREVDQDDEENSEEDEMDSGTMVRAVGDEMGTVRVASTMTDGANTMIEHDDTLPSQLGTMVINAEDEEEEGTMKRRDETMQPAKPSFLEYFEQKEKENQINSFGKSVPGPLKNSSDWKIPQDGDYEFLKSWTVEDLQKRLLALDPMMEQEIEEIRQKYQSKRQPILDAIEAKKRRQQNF

| Sequence | % activity [1] [%] | % activity [2] [%] | % activity [3] [%] | % activity [4] [%] | % activity [5] [%] | % activity [6] [%] |
| --- | --- | --- | --- | --- | --- | --- |
| FAKLAARLYRKALARQLGVAA [MMI-0300] | 37 | 74 | 1 | 14 | 128 | 14 |
| YARAAARQARAKALNRQLGVA [MMI-0200] | 98 | – | 21 | 73 | – | 72 |
| KAFAKLAARLYRKALARQLGVAA [MMI-0400] | 39 | 24 | 0 | 18 | 118 | 6 |
| HRRIKAWLKKIKALARQLGVAA [MMI-0500] | 16 | 10 | −1 | 12 | 95 | 3 |
